Results: the DeepSol protein solubility set

Test: soluble on expression in E. coli; label from the status in PepcDB or PDB records

| Sequence | soluble on expression in E. coli |
| --- | --- |
| MSLGRIGLRKLLQRIGIVAESMTPLATDPVEVTQLLDARWYDERLRALADELGRDPDSVRAEAAGYLREMAASLDERAVQAWRGFSRWLMRAYDVLVDEDQITQLRKLDRKATLAFAFSHRSYLDGMLLPEAILANRLSPALTFGGANLNFFPMGAWAKRTGAIFIRRQTKDIPVYRFVLRAYAAQLVQNHVNLTWSIEGGRTRTGKLRPPVFGILRYITDAVDEIDGPEVYLVPTSIVYDQLHEVEAMTTEAYGAVKRPEDLRFLVRLARQQGERLGRAYLDFGEPLPLRKRLQEMRADKSGTGSEIERIALDVEHRINRATPVTPTAVVSLALLGADRSLSISEVLATVRPLASYIAARNWAVAGAADLTNRSTIRWTLHQMVASGVVSVYDAGTEAVWGIGEDQHLVAAFYRNTAIHILVDRAVAELALLAAAETTTNGSVSPATVRDEALSLRDLLKFEFLFSGRAQFEKDLANEVLLIGSVVDTSKPAAAADVWRLLESADVLLAHLVLRPFLDAYHIVADRLAAHEDDSFDEEGFLAECLQVGKQWELQRNIASAESRSMELFKTALRLARHRELVDGADATDIAKRRQQFADEIATATRRVNTIAELARRQEGHHHHHH | soluble |
| MAEGEDVGWWRSWLQQSYQAVKEKSSEALEFMKRDLTEFTQVVQHDTACTIAATASVVKEKLATEGSSGATEKMKKGLSDFLGVISDTFAPSPDKTIDCDVITLMGTPSGTAEPYDGTKARLYSLQSDPATYCNEPDGPPELFDAWLSQFCLEEKKGGISELLVGSPSIRALYTKMVPAAVSHSEFWHRYFYKVHQLEQEQARRDALKQRAEQSISEEPGWEEEEEELMGISPISPKEAKVPVAKISTFPEGEPGPQSPCEENLVTSVEPPAEVTPSESSESISLVTQIANPATAPEARVLPKDLSQKLLEASLEEQGLAVDVGETGPSPPIHSKPLTPAGHTGGPEPRPPARVETLREEAPTDLRVFELNSDSGKSTPSNNGKKGSSTDISEDWEKDFDLDMTEEEVQMALSKVDASGELEDVEWEDWE | soluble |
| AMDFPQQLEACVKQANQALSRFIAPLPFQNTPVVETMQYGALLGGKRLRPFLVYATGHMFGVSTNTLDAPAAAVECIHAYSLIHDDLPAMDDDDLRRGLPTCHVKFGEANAILAGDALQTLAFSILSDADMPEVSDRDRISMISELASASGIAGMCGGQALDLDAEGKHVPLDALERIHRHKTGALIRAAVRLGALSAGDKGRRALPVLDKYAESIGLAFQVQDDILDVVGDTATLGKRQGADQQLGKSTYPALLGLEQARKKARDLIDDARQSLKQLAEQSLDTSALEALADYIIQRNK | soluble |
| MRTLLIRYILWRNDGDPSYYNDDFKKLILFDELVDDDDVCTLIKNMRMTLSDGPLLDRLNQPVNNVEDVKRMIAISAKVARDIGRRSEIRWEDSFTILFRMIEKYFDDLMTDLYGEK | not soluble |
| MSLTDLIDIHCHLLPAVDDGSKSIEETLSLIDLLEEIGVKQHILTPHIMEEYPSNDAIFLRARFEELLAAITPDKASRLRLAAEYMLDVAFLDRLAEPLLTLGDRYILVETSYMAPPIGLMGLLADLRFKGLSPVLAHPERYLYMEEKDYVAIKKQGVMFQLNLFSLFGAYNSSASEKAYALLEAGYYDLIGTDIHHLQPIARLLSEASLPPDLEGKIKSLVENNTRLFSEGHHHHHH | not soluble |
| MSLDFDADTPVVGMVHLSPLPGAPGYDDGNRPAIRDAALRDASRLEAGGVDALLVENFGDAPFYADDVPKHVVASMAALVRDITREAEVPVGVNVLRNDAEAAVSIAAAADADFVRVNVHTGARLTDQGVVGGQAAETVRLRDRLDAAEVSMLADIDVKHSAALAERPLSEGVAELLERGHADGVIASGAGTGHATDHDHLQAVVDARDRLDADAPVFVGSGVTQETVGATLDLADGAIVGTALKQNGETTAPVDGDRVRALVDAAR | not soluble |
| MSLRSTKTIHVISCHAEGEVGDVIVGGVAPPPGETLWEQRSFIARDQTLRNFVLNEPRGGVFRHVNLLVPPRHPEADAAFIIMEPEDTPPMSGSNSICVSTVLLDGGIVPMIEPITEMVLEAPGGLVRVKAECRNGKAERIFVQNVTSFADKLSVPLDVEGIGTLTVDTAYGGDSFVVVDAEALGFAIVEDEAKDIARLGVRITNAANEQLGFSHPENPDWNHISFCAFCGPLSQTPTGLTGRSAVAIQPGKVDRSPTGTAVSARMALMAARGQMTIGDTFEAVSIIGSSFTGRIVSQQMAGDRPGIVPEISGRGWITGIHQHMLDPSDPWPGGYKLSDTWGAEGHHHHHH | soluble |
| MDYSVANAGFERFQSAMEKDVERMRDFQERMSQVRGKGEAAEGRITAEVDSENGLAVLDIDPRVLRMPVEDISTEIRAAVNAAFKDFQDKTGSLAAELYGAQGEDPEKILADPSALLAKIEELGNNFAVQLQDMARELSVQQQRAKDIAGRMTPPRDLD | not soluble |
| MREELIEKIKKAGVVGAGGAGFPTHVKVNSKARTVLVNGAECEPLLRVDQQLMAGQASKVVMGLELVMSVTGAKEGIISLKHKYHDAISALEKEISGKPIRIHILDDFYPAGDEHVTVYESTGRLVPQGSIPLKVDCVVHNVETLLNTVDAVADQPVTDTYLTITGEVNQPLTLRLPIGTAISEALAMAGYHDSGGMQVIEGGPMMGKIVADLHQPITKTTKGLIVLPREHPLLRLKTLPADKVLRQSRVSCVQCRFCTDLCPRYLLGHQLEPHKIMRMVNYGQGQEETMKMAFACSECGVCEQYACIMGLSPRAVNALLKKELTRLGIKPSPSPADQAVDPLQPHRKIPVKRLISRLALQDYDRNAPLQERDYPIDRVAIKLCQHVGAPSVPTVKAGQKVKKGDPIASPPAKGLGSYLHASIDGVVQEITDSILISARKGSETQPWNPSV | not soluble |
| MPSVKIGIIGAGSAVFSLRLVSDLCKTPGLSGSTVTLMDIDEERLDAILTIAKKYVEEVGADLKFEKTMNLDDVIIDADFVINTAMVGGHTYLEKVRQIGEKYGYYRGIDAQEFNMVSDYYTFSNYNQLKYFVDIARKIEKLSPKAWYLQAANPIFEGTTLVTRTVPIKAVGFCHGHYGVMEIVEKLGLEEEKVDWQVAGVNHGIWLNRFRYNGGNAYPLLDKWIEEKSKDWKPENPFNDQLSPAAIDMYRFYGVMPIGDTVRNSSWRYHRDLETKKKWYGEPWGGADSEIGWKWYQDTLGKVTEITKKVAKFIKENPSVRLSDLGSVLGKDLSEKQFVLEVEKILDPERKSGEQHIPFIDALLNDNKARFVVNIPNKGIIHGIDDDVVVEVPALVDKNGIHPEKIEPPLPDRVVKYYLRPRIMRMEMALEAFLTGDIRIIKELLYRDPRTKSDEQVEKVIEEILALPENEEMRKHYLKR | soluble |
| MSLKIKKSKLIGFVVADITNPFSVAAFRGVEEVCDQYGYSIMVCNTDNSPEKEREMLLKLEAHSVEGLILNATGENKDVLRAFAEQQIPTILIDRKLPDLKLDTVTTDNRWITKEILQKVYSKGYTDVALFTEPISSISPRAERAAVYQEMASVQNVNGLVRLHEIDVKDKEQLKAELRSFHKEMPEQKKAILALNGLIMLKIISCMEELGLRIPQDIGIAGFDDTEWYKLIGPGITTIAQPSHDMGRTAMERVLKRIEGDKGAPQTIELEAKVIMRKSLEGHHHHHH | soluble |
| MGSDKIHHHHHHMKETDNLLRENSHDRDISEIVATITALDHPSPSLLRFTAFVPGSANNPVWAEANVAIRLYLSEEFDDATRVYTVRSFDAATESIVVDVVQHHHESPMMRWSDTVKINDTLVLTGPRPHFVIPEGEQAALFLDDTAIPALAAILDQWPTDLRGKGWVVTDDPAAFDELPSIDGLELNLLAPGSDPTVQPLAQQAYDLENPETYVVWAAGERDEIKSIRRHFRKQVGLEKDAVAVFGYWKYNTTNTQIDAVRKENYMKMLSEGLQLENFDDLSLEI | not soluble |
| VPKVTFTVEKGSNEKHLAVLVKYEGDTMAEVELREHGSDEWVAMTKGEGGVWTFDSEEPLQGPFNFRFLTEKGMKNVFDDVVPEKYTIGATYAPEE | soluble |
| FLYSNTSYRTLYLAAILYKAKADIRIVHDHLNHTSLADLKFKKYVYNHFKTQGQVIYFICTKKIQKRLRMTADQCARVNLLSNIAD | soluble |
